Consider two molecules from US20030203869A1.

Test [1] addresses purified HLA-A2.1 molecules (human). Kind of test: inhibition of binding of a labeled reference peptide to purified HLA-A2.1. The settings on record: remark: other sources report otherwise.
The target in test [2] is purified HLA-A11 molecules (human). As to the kind of experiment: inhibition of binding of a labeled reference peptide to purified HLA-A11.

Consider WLSLLVPFV (modifications not checked) [HBV Env 335 (HBV env 335-343) CTL epitope peptide …], for which, in test [1], the IC50 – broadly, the concentration that inhibits the measured activity by half – was found to be 5 nM.

In test [2], TVYYGVPVWK (modifications not checked) [HIV Env 49 (HIV env 49-58) CTL epitope peptide …] showed an IC50 of 4 nM.
